In a protein production outcome set (Wang et al. 2014):

Assay: label from the status in PepcDB records

Sequence | protein production
MRFWGKFFGFVIGFMFGRFFGALLGLWLGHLYDKRPGGGASFSQILGQAKNRQGIFFNTTFAVMGHVAKASGRVTETDIRIATLLMDQMRLTGDARKEAQQAFREGKEPDFDLCSSLQAFRAVTQGRQELVQMFIEIQIQTALSDGELDAAEHAILMTVAQELGYGRQQLDELLKRWQAEFRFHQTSSGNKTSITDAYHLLGITAEATDQEVKRAYRKLMNEHHPDKLVAKGLPPEMMEIANRKAQDIQAAYDRVKSERGMR | failed
MSAITRYLAMLRLFGMLLCAAAIPSVATATVPVTVAVAASDVEEEAVEASAVGAEAEAARDAGYESAEVPALARRVTDLTATLDAAERARLEASLAALEARKGAQVAILMVPSTYPDSIEAYATRVFEAWKLGRKGIDDGVLVLVAKDDRRMRIEVGYGLEGTITDIDAGRIIREYMTPAFRQQDYAGGLEAAAQRLVRLIDGEALPPPPRDPLEPGAVRQTLAIAFLLGALGGVALLVRPRAWYWTLGAVVALAAALALGRHWPAGAMVALAEMVAVLGVGFGALLKYSRGARWFFAILVLYALGLFWAYRRYGLPVLHYGLAVPLSLGLSLLMLAGAWQGLRRGRRWAYLPGLLGLLLTLALECLLLLVDDPLNSIEALIILPAACLPLLIGCNFSAGGSGGGRRRGGDYASSSGSSSSSSSSSSSDSFSGGGGSSGGGGASGSWLEHHHHHH | failed
MSLAQADGIAFRELSFPEALKRAEVEDKLLFVDCFTTWCGPCKRLSKVVFKDSLVADYFNRHFVNLKMDMEKGEGVELRKKYGVHAYPTLLFINSSGEVVYRLVGAEDAPELLKKVKLGVESEGHHHHHH | not failed
MIRNIVFDLGGVLIHLNREESIRRFKAIGVADIEEMLDPYLQKGLFLDLESGRKSEEEFRTELSRYIGKELTYQQVYDALLGFLEEISAEKFDYIDSLRPDYRLFLLSNTNPYVLDLAMSPRFLPSGRTLDSFFDKVYASCQMGKYKPNEDIFLEMIADSGMKPEETLFIDDGPANVATAERLGFHTYCPDNGENWIPAITRLLREQK | not failed
MGQIQQPIQGYDSTSPCGDNRDPQPFDFNFIFAFQPIVNIKNGHIYAQEALVRGLKGEGAHSILSRIDENNRYSFDQKARDKALQSALSCNWDGAISINFMPNAVYYPEYCLSQTLSTCEKLGINPARLIFEWSEKEYLTEYDHIRHVISRYKHLNFKVAFDDFGGLYSNFNLLTAYHPDIIKLDRHYVVGIEHDKRRRAVVKAMVGLCRDLGIDFVVEGVETIEEFKVLQDLGVDLMQGFLLARPALMQMPQATMPP | failed
MIFMNMIFVDREKELQTLMQRLNSPTFELVIVYGRRRIGKTSLILRAISGRNDSVYYYATERNNLERFREVAQRKFPEVRYAREDWESLLHFLRDKVVIIDEFPYLIEEDKSILSTFQRIVDENRDSRTKLILLGSSISVMEDVLSYRSPLYGRRTASLKVGELKFRDLRHLGFSVEEAVKIYGFAGGVPMYLTRVTPPFLDWVNRELKRVDSFLRDEVDFLLRYEFREIGTYKEILRAISMGKNTLAEIRDYVKVGGEISSYIKKLERIELVTREVPVTESVRSKMGRYVIRDNFTNFWFRFVYPNLSLIEEGTYEITEGEYANYLGHVFERICREYVRDRYRVKKVGRQWWKDVEIDVMGLGNVKVAGECKWSEDVNPHSVLANLERKVERLGHTVDRYVVFARSFSTKEKMEKAELVDINDLNSWFMS | failed
MDLEINKGIGRNVEFKGLESQYLFIFCGGLLAVFVVFVILYMAGVNQWVCIGFGVAAATLLVWLTFRLNARYGTHGLMKAAARRRHPRYVVNRLKIPRLFTFKHWQE | failed
MKTLVHLSDLHFGKTESHLVDAIAAEVRAVDSDLLVVSGDLTQRARKDEFLQARAFLDSLPGPRIVVPGNHDVPLWNVFARAMTPLSRYRRYIEADTDPFYADSEVAVVGINTARSLTIKNGRINVRQLKAATEKFAYMSDDITRIVVTHHPFEGLDLESDDGIVARADLAMDAFSRSGVDIILSGHQHLHRAGSSARRYLIDGYAALLVQAGTAVSSRVRQAANSFNIIRIEHPRISIECRAWQSLQSGFETSASYSFRQGSGGWEPALEHHHHHH | failed
KRFEFVGWGSRQLIEFLHSLGKDTSEMISRYDVSDTIAKYISKEGLLDPSNKKKVVCDKRLVLLFGTRTIFRMKVYDLLEKHYKENQD | not failed
MWWPGTVIGVGAGFAVASIPGALLGALLGQAIDRRLRLQGWEDMRERLGGRPALRDDELLFVMLGRLAKCDGRVAEQHIQQARQEMVRLDLAEAARLRAINAFNRGKAGKDRLGGHLRRISQQPHAAEGTLRACWRMVWADGKMGNKERELLLDWGQKLGMSRRQVQAMSLEYEPRKATGAESVPMTYAAALRLLAVDADTDTDKVKQAYRRLVSRHHPDKLAGTGASEAQVREATARTRELHQAYAMIRKRRGL | failed
MERNVTLDFVRGVAILGILLLNISAFGLPKAAYLNPAWYDAITPQDAWTWAFLDLIGQVKFLTLFALLFGAGLQMLLPRGRRWIQSRLTLLVLLGFIHGLLFWDGDILLAYGLVGLGVLLLLGLISDSQTSRAWTPDASAILYEKYWKLHGGVEAISNRADGVGNSLLALGAQYGWQLAGMMLIGAALMRSGWLKGQFSLRHYRRTGFVLVAIGVTINLPAIALQWQLDWAYRWCAFLLQMPRELSAPFQAIGYASLFYGFWPQLSRFKLVLAIACVGRMALTNYLLQTLICTTLFYHLGLFMHFDRLELLAFVIPVWLANILFSVIWLRYFRQGPVEWLWRQLTLRAAGPAISKTSR | failed
MIEAYKDYWKRYIDFKGKSNRLEFWTPVLVHIISIFIIALIGAFSFIVGIFIVAAVLSALIGLFGLANIVPMAAVTLRRFYDAGRKRTTAIILIILSVVVNIVFDIIQVDSIAVFLNIVSIICTIILVIETLLPSKNVEDAQLKWL | failed
MAAEIHSRPQSSRPVLLSKIEGHQDAVTAALLIPKEDGVITASQDNGAVMEFHVSEDFNKMNFIKTYPAHQNRVSAIIFSLATEWVISTGHDKCVSWMCTRSGNMLGRHFFTSWASCLQYDFDTQYAFVGDYSGQITLLKLEQNTCSVITTLKGHEGSVACLWWDPIQRLLFSGASDNSIIMWDIGGRKGRTLLLQGHHDKVQSLCYLQLTRQLVSCSSDGGIAVWNMDVSREEAPQWLESDSCQKCEQPFFWNIKQMWDTKTLGLRQHHCRKCGQAVCGKCSSKRSSYPVMGFEFQVRVCDSCYDSIKDEDRTSLATFHEGKHNISHMSMDIARGLMVTCGTDRIVKIWDMTPVVGCSLATGFSPH | failed
MNKVDEIEDFRFEDLEMETEKDKERMMTPTTRMSYSSSSSPSPSSASSSAASSLAAKAIRASSAHRDSSLSSAYSSPSSAPVPTPPKEVNKAYEYTSMKSLNEPKRGFWGSLASKAKAFLDEDDPNQLPQSPKRMEQSIPSATTSGTKEAGQTGRKSENPSLQRRLDAITSSLNYIGGTIGTVVEEGITAVENRTAGIIQETRKKIKKKPSLTRNQQNPEIQADLEIQLKASRDVAMAMAAKAKLLLRELKMVKSDLAFAKQRCAQLEEENKVLRENRSGDSQTDDDDLVRLQLETLLAEKARLAHENSIYTRENLYLRGVVEYHQLTMQDVVYFDEKTEEVTEVYPINVSSMSSSSDNSYNPNPSFLELK | failed
MNRNRLPALTPGLAWSRPMNGAVDHKGYEQPTYDLEFAETATEIRRYGPYLVAEVTMAGDRSTAITRGFRVLARYIFGGNAESRRIEMTVPVSQLPAGEDLWTVRFTMPAVRSASLLPAPKDSRIRFVTVPPSRQAVRRFSGWPTDHALRRQAEGLAHWIAERGLPKREGPYFYFYDSPMTLPWQRRNEVAFGLGEGLEHHHHHH | not failed
MDNPKGIDGFTNLKEKDIATNENKLLRTITADKMIPAFLITPISSQIAGKVIAQVESDIFAHMGKAVLIPKGSKVIGYYSNNNKMGEYRLDIVWSRIITPHGINIMLTNAKGADIKGYNGLVGELIERNFQRYGVPLLLSTLTNGLLIGITSALNNRGNKEGATNFFGDYLLMQLMRQSGMGINQVVNQILRDKSKIAPIVVIREGSRVFISPNTDIFFPIPRENEVIAEFLK | failed
MALPQLSIWQPGDGLRKIKYKYHVCLIVIFSVLIRLLFLTDRYLWCDEASSVLISRHSVDNLLFHAAFDVHPPLYYLLLHDWIILLGDSIAAVRSLSLLFGILTVVLVIALTRWLANERTALLAGWFAALMPMAVHYSQETRMYALMGMLTLAAALALMMWIKTPTHNRYLVAYALLMTFSFYTHYFTLFTLIAHWIAVTILSCQSHKTACYLKLPGWWFANLAIAVAYLPWLPVLFNLLTHLAQLRAGNDIGWIPPVTWRDLPAMYWHFFTGNNGQGFPSFILWLAVGGFIGTVGRISLYNGEYERYQLILFCNLVIPVMLVFIISWWMPLFIDRYFFFSSLSIPPLLAVLLTRAKKAVCGFWFILFTLLFGYGSYHNNPEHIDEFKPLVNYINTRHQPNDAVVVSKMFDYLSYVYYNKRDYRTFLYTPPNAHGTSGRPNAYGFGSLFYAQADQTYIDTLTTLSKSYHRVWLVSGGNFSQDYPLPSEWQNIAKFRSGRFQVQLFVIPTQQARQMQ | failed
MKLKSLLLRYYPPGIMLEYEKHGELKTKSIDLLDLGPSTDVSALVEEIQKAEPLLTASRTEQVKLLIQRLQEKLGQNSNHTFYLFKVLKAHILPLTNVALNKSGSCFITGSYDRTCKLWDSASGEELNTLEGHRNVVYAIAFNNPYGDKIATGSFDKTCKLWSVETGKCYHTFRGHTAEIVCLSFNPQSTLVATGSMDTTAKLWDIQNGEEVYTLRGHSAEIISLSFNTSGDRIITGSFDHTVVVWDADTGRKVNILIGHCAEISSASFNWDCSLILTGSMDKTCKLWDATNGKCVATLTGHDDEILDSCFDYTGKLIATASADDGVSLCRPGRSAVARSWLTATCASQVQAILLPQPPELCHVLGNHV | failed
MDETEHMPRYTLTLVDSTGAMEPLILMDDDLKSIAAKLEGRVSAKTRGRRPRGTGGISATPKGYRAYSTVTDPLTGKDHRVSGFGRTRSQAEARLKEKLAEFDRTHRVGYVRPPTVAEWMDHWLTDVCKPRLKPRTWGTYASVIANNIVPSIGAVRLDELKPAHFRRMERYVMDEQGKSSGTAGSAWRTLHKALEDAVLEGVIERNPAVKGTAPRVALKERAALTPEQAADLIAAETDDTWRLMWMLAFMTGMRQGERLGLTEDELRRDGDRLIILVEWQAQHLTKREVEGLPKGVECTPLGNGMYRTRPKTEKGRRAIPLPEALADQLLAYIERHGVNGDGLVFHDDRGLPLTGCVERRRWYRALDRVGLGHEYVPHSARHTTATILNRLGLDDVTRTAIMGHSRVSTTNEIYTHVELDRLVAATDGVERAIEG | failed
DRRYKWQTVVSEQLVGAGFNEILNNSLTAGSYYEGLKTHPREMAVELMNPLSQELNCMRQTLLFGGLETLSHNLRRKHLSLYLFEWGKCYRFHAAKRTDETPLSAYAEDDRLGIWICGQRVHNSWAHPEEPTSVFELKAVVEQVLCRVGIETGAYTLETADNDLYASAMEVKTRSGKLLGTFGTVSTEQIKRFDIEQPVYFAELLWDALMSESARYKLEARD | failed
AIQKQMLVPEVVVNKDGDWVTPVMKDEGSIQYFVVFRFINGNEIIEPKDKDYEKLGSFMRMFHEKTNGVLKSVPQTWRGYERPIYSEKKMIHEPLQCLLNTSFLSYEDKNKCLRIAERIQELTNSIQLREKQFVHGDMHFGNILVDKEDWYLLDFDECGFGYKEFDIGVPRLHLIASGQLEDAWGNFMMGYGENIS | failed
VITVGNYKGGAGKTTNVVLLAYKLAKKGLKVCVLDLDPQSNATKSLLLTKSSLYQDEVVTIEKTLMTGISEKNLDGLEVKIMDNLYLLPSYIDFEDFPKYLYKNTSNQREEDYYLKNIFTPLQGKYDIVLIDVPPMSKAVTRNAVICSDYVLISLQTHERSLSGAESYVEELNKLHNEYDLDLEVVGVLPVIHKNNGSVDQYVMEVAKETFGEDNLFENVVPQMERIKRFDVNGITDKDRHDQKVLNLYDKVSDELLD | failed
